Experimental data reported in US20240076396A1 (Regeneron, published 2024).

Key:
[1] = molecular target: T1, human GITR expressed on the cell surface (human, UniProt Q9Y5U5 26-241); assay: cell-based or functional assay
T1 sequence: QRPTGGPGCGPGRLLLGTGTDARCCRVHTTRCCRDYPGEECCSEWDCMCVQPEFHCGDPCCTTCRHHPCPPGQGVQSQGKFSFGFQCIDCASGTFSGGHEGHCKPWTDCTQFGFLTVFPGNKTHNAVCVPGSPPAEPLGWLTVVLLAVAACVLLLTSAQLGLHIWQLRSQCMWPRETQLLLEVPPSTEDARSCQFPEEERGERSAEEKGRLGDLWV

[2] = molecular target: T2, cynomolgus monkey GITR expressed on the cell surface (Macaca fascicularis (cynomolgus monkey)); assay: cell-based or functional assay
[3] = molecular target: T3, Jurkat/hCD20 cells (human CD20, no GITR; negative control cell line) (human, UniProt P11836 1-297); assay: cell-based or functional assay
T3 sequence (looked up): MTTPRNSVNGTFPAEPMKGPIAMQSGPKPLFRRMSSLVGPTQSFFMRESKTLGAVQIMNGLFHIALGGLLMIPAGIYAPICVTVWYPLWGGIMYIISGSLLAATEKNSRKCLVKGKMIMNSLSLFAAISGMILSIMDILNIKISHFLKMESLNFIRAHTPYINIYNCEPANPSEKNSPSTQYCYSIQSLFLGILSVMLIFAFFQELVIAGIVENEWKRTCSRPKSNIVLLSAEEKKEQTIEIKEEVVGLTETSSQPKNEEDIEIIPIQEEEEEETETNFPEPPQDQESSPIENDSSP

[4] = molecular target: T1, human GITR expressed on the cell surface; assay: cell-based or functional assay; remark: listed apart in the source
[5] = molecular target: T2, cynomolgus monkey GITR expressed on the …; assay: cell-based or functional assay; remark: listed apart in the source
[6] = molecular target: T3, Jurkat/hCD20 cells (human CD20, no …); assay: flow cytometry on Jurkat/hCD20 cells
Protocol: (§1) FIG. 5A, FIG. 5B, and FIG. 5C depict cell-surface binding of mAb1 and IgG1 isotype control at a range of concentrations (18 pM to 300 nM) on Jurkat/hCD20 (FIG. 5A), Jurkat/hCD20/hGITR (FIG. 5B), and Jurkat/hCD20/MfGITR (FIG. 5C) cells. Binding was detected using an Alexa647-labeled anti-human IgG by flow cytometry. Fluorescence intensity was plotted as geometric MFI. h, Human; Mf, Macaca fascicularis (cynomolgus monkey).
(§2) Flow cytometry was used to evaluate mAb1 binding to Jurkat/hCD20/hGITR cells and Jurkat/hCD20/MfGITR cells. Jurkat/hCD20 cells were used as a negative control cell line for GITR binding. Cells were added to a 96-well V-bottom plate (2×10⁵ to 4×10⁵ cells/well) and incubated in Fc block solution, followed by successive incubation on ice with primary antibody (mAb1 or IgG1 isotype control) at final concentrations ranging from 18 pM to 300 nM and a secondary antibody (AF647-conjugated anti-human IgG) at 5 μg/mL. […] Data were analyzed with Flow.lo software. For EC₅₀ (effective concentration at 50% activity) determinations, measured geometric MFI values were analyzed using a 4-parameter logistic equation over a 9-point response curve with GraphPad Prism. The fold binding was determined by taking the ratio of the highest MFI on the curve to the MFI of the wells containing secondary antibody only.

[7] = molecular target: T2, cynomolgus monkey GITR expressed on the …; assay: flow cytometry on Jurkat/hCD20/MfGITR cells
Protocol: as §1, §2

[8] = molecular target: T2, cynomolgus monkey GITR expressed on the …; assay: flow cytometry on Jurkat/hCD20/MfGITR cells; max MFI over secondary antibody alone
Protocol: as §2, with “μg/mL. Cells were then stained with LIVE/DEAD Fixable Green Dead Cell Stain according to the manufacturer's instructions.” for “μg/mL.”
^a The maximum MFI was the highest mean MFI value within the concentration range tested (18 pM to 300 nM). ^b Fold binding was calculated as the maximum MFI above background (secondary antibody alone). h, Human; Mf, Macaca fascicularis (cynomolgus monkey); ND, Not determined because concentration-dependent binding was not observed

[9] = molecular target: T2, cynomolgus monkey GITR expressed on the …; assay: flow cytometry, AF647-conjugated antibody on CD4+ CD69+ cynomolgus monkey primary T cells, donor 58947
Protocol: FIG. 7 depicts antibody binding to CD69+ cynomolgus monkey primary T-cells. Primary cynomolgus monkey T-cells from 4 separate donors were stimulated in vitro with anti-CD2/anti-CD3/anti-CD28-coated beads. Cell-surface binding of AF647-conjugated mAb1 and AF647-conjugated IgG1 isotype control at a range of concentrations (8 pM to 200 nM) on CD69⁺ and CD69⁻ cynomolgus monkey primary CD4⁺ and CD8⁺ T-cells was detected using flow cytometry. Fluorescence intensity was plotted as geometric MFI. Mf, Macaca fascicularis (cynomolgus monkey)
Peripheral blood mononuclear cells (PBMC) were isolated from human or cynomolgus monkey whole blood (4 donors each) using density centrifugation through Ficoll-Paque PLUS in SepMate tubes (for human PBMC) or 50 mL conical tubes (for cynomolgus monkey PBMC) and transferred to a fresh conical tube for incubation in Red Blood Cell (RBC) Lysis Buffer. […] After 4 days, activation beads were removed from the culture using a MACSiMAG Separator, and cells were collected and counted.
Flow cytometry was used to evaluate mAb1 binding to human or cynomolgus monkey T-cells in activated PBMC. […] Data were analyzed with Flowio software. For EC₅₀ determinations, measured geometric MFI values were analyzed using a 4-parameter logistic equation over a 12-point response curve with GraphPad Prism.

B1: mAb1 (antibody, human IgG1, kappa, V domains shown)
VH: QVQLQESGPGLVKPSETLSLTCIVSGGSISGYFWNWIRQPPGKGLEWIGYIYYSGTTIYNPSLKSRFTISLDTSKNQFSLKLTSVTAADTAVYYCARESYDPSPRYFDHWGQGTLVTVSS
VL: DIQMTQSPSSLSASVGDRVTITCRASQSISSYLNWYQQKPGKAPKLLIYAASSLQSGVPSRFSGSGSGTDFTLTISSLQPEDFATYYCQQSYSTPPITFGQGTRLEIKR
notes: Human IgG1; N101D variant of CompAb1; also called N101D Variant; N101D
EC50, NFAT-luciferase in Jurkat/NFAT-Luc/hFcγR3a effector cells with Jurkat/hCD20/hGITR target cells [1]: 32 pM | Fold Change in Activity, NFAT-luciferase in Jurkat/NFAT-Luc/hFcγR3a effector cells with Jurkat/hCD20/hGITR target cells [1]: 38 fold | EC50, NFAT-luciferase in Jurkat/NFAT-Luc/MfFcγR3a effector cells with Jurkat/hCD20/MfGITR target cells [2]: 16 pM | Fold Change in Activity, NFAT-luciferase in Jurkat/NFAT-Luc/MfFcγR3a effector cells with Jurkat/hCD20/MfGITR target cells [2]: 23.9 fold | Fold Change in Activity, NFAT-luciferase in Jurkat/NFAT-Luc/MfFcγR3a effector cells with Jurkat/hCD20 target cells [3]: 1.02 fold | Fold Change in Activity, NFAT-luciferase in Jurkat/NFAT-Luc/hFcγR3a effector cells with Jurkat/hCD20 target cells [3]: 1.01 fold | Fold Change in Activity, ADCP of Jurkat/hCD20/hGITR [4]: 5.92 fold | EC50, ADCP of Jurkat/hCD20/MfGITR [5]: 510 pM | Fold Change in Activity, ADCP of Jurkat/hCD20/MfGITR [5]: 6.98 fold | binding result [6]: no binding (tested: 18 pM to 300 nM) | EC50 [7]: 3.52 nM | Fold Binding [8]: 277 fold | EC50 (read off the curve) [9]: ~3 nM
